This assay concerns the target T1, 6xHis-tagged TssI2 (purified) (Vibrio fluvialis 85003, UniProt A0A1W6EUI3 1-1012).
T1 sequence: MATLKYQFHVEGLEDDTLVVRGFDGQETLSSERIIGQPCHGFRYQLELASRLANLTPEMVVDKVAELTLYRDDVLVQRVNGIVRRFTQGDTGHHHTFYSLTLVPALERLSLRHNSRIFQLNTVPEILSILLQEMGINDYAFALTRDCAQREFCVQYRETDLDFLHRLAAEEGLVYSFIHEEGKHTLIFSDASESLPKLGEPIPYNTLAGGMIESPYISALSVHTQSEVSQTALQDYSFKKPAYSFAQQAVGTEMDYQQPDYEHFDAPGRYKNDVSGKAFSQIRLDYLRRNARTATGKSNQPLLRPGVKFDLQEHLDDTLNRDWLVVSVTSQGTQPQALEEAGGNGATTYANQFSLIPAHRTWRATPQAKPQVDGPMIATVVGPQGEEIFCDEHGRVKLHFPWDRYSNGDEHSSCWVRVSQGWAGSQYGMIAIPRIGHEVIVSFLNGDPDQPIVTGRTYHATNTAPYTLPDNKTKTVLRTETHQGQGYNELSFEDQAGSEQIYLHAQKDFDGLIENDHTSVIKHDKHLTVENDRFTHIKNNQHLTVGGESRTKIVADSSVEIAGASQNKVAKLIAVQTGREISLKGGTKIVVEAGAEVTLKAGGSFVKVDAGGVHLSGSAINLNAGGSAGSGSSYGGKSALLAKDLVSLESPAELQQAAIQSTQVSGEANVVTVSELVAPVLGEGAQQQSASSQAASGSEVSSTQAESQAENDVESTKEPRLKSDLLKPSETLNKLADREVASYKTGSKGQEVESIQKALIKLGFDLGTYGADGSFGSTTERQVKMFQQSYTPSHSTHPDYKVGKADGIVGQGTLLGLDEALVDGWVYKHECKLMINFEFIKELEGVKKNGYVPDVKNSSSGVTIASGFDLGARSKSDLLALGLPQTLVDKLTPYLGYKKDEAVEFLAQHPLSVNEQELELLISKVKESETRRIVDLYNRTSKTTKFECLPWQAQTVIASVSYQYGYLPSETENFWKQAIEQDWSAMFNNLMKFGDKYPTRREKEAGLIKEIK
The assay can be described thus: ITC.

B1: 6xHis-tagged TsiI2^19-127 (purified) (domain or fragment)
chain: FPTNEVYAYLDITSFNSSLIQKAARGQKHFSDLKIPNPVISKDTILIESEYWKYEMQFVKEDDSGIHVCFVDKAKWGTYDTQTPMIIRKYADEYVAIKMNSDVCEDFAK
For B1, binding was put at a Kd of 1.07 nM.

The values above are taken from article PMC9620997 (Gut Microbes, 2022).
